This data set is described as follows: yeast display, Sf9 membrane polyspecificity reagent, FACS + sequencing; frameworks hold sequencing errors. A digest of the protocol: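 Genes from sorted yeast were amplified by colony PCR, read by MiSeq 2 × 250 sequencing and filtered on CDR length. These cells carried a synthetic nanobody library in Saccharomyces cerevisiae BJ5465 and were sorted by FACS into low and high (top ~1%) gates on anti-HA and streptavidin fluorescence. Polyreactivity is labelled according to the gate of origin.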
Regarding “QVQLVESGGGLVQAGGSLRLSCAASGSIFTPYAMGWYRQAPGKERELVAAITQTGGITYYADSVKGRFTISRDNAKNTVYLQMNSLKPEDTAVYYCAADDYNPFSYSYGLEYWGQGTQVTVSS”, the “polyreactivity (PSR sort gate)” value was “low polyreactivity”. Then “QVQLVESGGGLVQAGGSLRLSCAASGSIFTPYAMVWYRQAPGQERELVAAITSGGSTYYADSVKGRFTISRDNAKNTVYLQMNSLKPEDTAVYYCARRVWNYLRRSWYDYWGQGTQVTVSS”, with “high polyreactivity”; and “QVQLVESGGGLVQAGGSLRLSCAASGSIFTRNTMGWYRQAPGKDRELVAAITWIGGRTYYADSVKGRFTISRDNAKNTVYLQMNSLKPEDTAVYYCAARSDPYWWQKYYYWGQGTQVTVSS”, with “high polyreactivity”. On to “QVQLVESGGGLVQAGGSLRLSCAASGSIFTRYAMGWYRQAPGKERELVATISFIGSSTYYADSVKGRFTISRDNAKNTVYLQMNSLKPEDTAVYSCAATGYARQYEYRYDYWGQGTQVTVSS”, for which the “polyreactivity (PSR sort gate)” value was “low polyreactivity”. Under “QVQLVESGGGLVQAGGSLRLSCAASGSIFTRYAMGWYRQSPGKERELVAALSYRGGRTYYADSVKGRFTISRDNAKNTVYLQMNSLKPVDTAVYYCAAGYRFSYSPNEFYYWGQGTQVTVSS” stands “high polyreactivity”; under “QVQLVESGGGLVQAGGSLRLSCAASGSIFTSYAMGWYRQAPGTERELVAVITSSGSSTYYADSVKGRFTISRDNAKNTVYLQMNSMKPEDTAVYYCYGYYDAYGYWGQGTQVTVSS”, “low polyreactivity”. For the sequence “QVQLVESGGGLVQAGGSLRLSCAASGSIFTSYVMGWYRQAPGKERELVAAINSGGRTYYADSVKGRFTISRDNAKNTVYLQMNSLKPEDTAVYYCATDLLYYQYYSEYDYWGQGTQVTVSS”, the “polyreactivity (PSR sort gate)” value is given as “high polyreactivity”.

“QVQLVESGGGLVQAGGSLRLSCAASGSIFTTNAMGWYRQAPGKERELVAAISSRGTSTYYADSVKGRFTISRDNAKNTVYLQMNSLKPEDTAVYYCAADYVYASRHFEYWGQGTQVTVSS”: the “polyreactivity (PSR sort gate)” value is given as “high polyreactivity”.

Turning to “QVQLVESGGGLVQAGGSLRLSCAASGSIFTTYAMGWYRQAPGKERELVATITSSDSTNYADSVKGRFTISRDNAKNTVYLQMNSLKPEDTAVYYCNAGGDRTVSVAWYSADDYWGQGTQVTVSS”, the “polyreactivity (PSR sort gate)” value is recorded as “low polyreactivity”. Under “QVQLVESGGGLVQAGGSLRLSCAASGSIFTTYTMGWYRQAPGKERELVAAITSSSGSTYYADSVKGRFTISRDHAKNTVYLQMNSLKPEDTAVYYCNATYSAAVDYWGQGTQVTVSS” stands “low polyreactivity”; under “QVQLVESGGGLVQAGGSLRLSCAASGSIFTVYAMGWYRQAPGKERELVATITGSDGRTDYADSVKGRFTISRDNAKNTVYLQMNSLKPEDTAVYYCAAQVFKWKYRQSLWFDQGYYWGQGTQVTVSS”, “low polyreactivity”; under “QVQLVESGGGLVQAGGSLRLSCAASGSIFTWYTMGWYRQAPGKERELVAAISWSGGRTYYADSVKGRFTISRDNAKHTVYLQMNSLKPEDTAVYYCAASAYGRPPFDYWGQGTQVTVSS”, “high polyreactivity”. Regarding “QVQLVESGGGLVQAGGSLRLSCAASGSIFTYNAMGWYRPAPGKERELVASITWSGGSTYYADSVKGRFTISRDNAKNTVSLQMNSLKPEDTAVYYCAAKRVHGATGYWGQGTQVTVSS”, the “polyreactivity (PSR sort gate)” value was “high polyreactivity”. Turning to “QVQLVESGGGLVQAGGSLRLSCAASGSIFTYTMGGYRQAPGKERELVATISRTGSTNYADSVKGRFTISRDNAKNTVYLQMNSLKPEDTAVYYCSKGAYITGAWPFYELITPYAYWGQGTQVTVSS”, the “polyreactivity (PSR sort gate)” value is recorded as “high polyreactivity”. Take “QVQLVESGGGLVQAGGSLRLSCAASGSIFTYYAMGWYRKAPGKERELVAAITKSGGRTYYAHSVMGRFTISRDNAKNTVYLQMNRLKPEDTAVYYCAALYGRYQTSYQFDYWGQGTQVTVSS”: the “polyreactivity (PSR sort gate)” value is “high polyreactivity”. Take “QVQLVESGGGLVQAGGSLRLSCAASGSIFTYYAMGWYRQAPGKEREFVAAISRRGGSTYYADSVKGRFTISRDNAKNTVYLQMNSLKPEDTAVYFCAADRWTRTLVKVIGRYYYCGQGTQVTVSS”: the “polyreactivity (PSR sort gate)” value is on record as “high polyreactivity”. Under “QVQLVESGGGLVQAGGSLRLSCAASGSIFTYYAMGWYRQAPGKERELVAAINSGGRTNYADSVKGRFTISRDNAKNTVYLQMNSLKPEDTAVYYCAKYGVLQYGYWGQGTQVTVSS” stands “low polyreactivity”.

For the sequence “QVQLVESGGGLVQAGGSLRLSCAASGSIFTYYAMGWYRQAPGKERELVAAISSDGGRTFYADSVKGRFTISRDNAKNTVYLQMNSLKPEDTAVYYCAAETNRFPGYGYWGQGTQVTVSA”, the “polyreactivity (PSR sort gate)” value was “low polyreactivity”.

Take “QVQLVESGGGLVQAGGSLRLSCAASGSIFTYYTMGWYRPAPGKERELVAAIRWSAGRTYYADSVKGRFTISRDNAKNTVYLQMNSLKPEDTAVYYCAAAERLRHGLKFDYWGQGTQVTVSS”: the “polyreactivity (PSR sort gate)” value is “high polyreactivity”. “QVQLVESGGGLVQAGGSLRLSCAASGSIFTYYVMGWYRQAPGKERELVAAITISGGSTYYADSVKGRFTISRDNAKITVYLQMKSLKPEDTAVYYCAAEEVYYEADGFQYSYDYWGQGTLVTVSS”: the “polyreactivity (PSR sort gate)” value is on record as “high polyreactivity”. Then “QVQLVESGGGLVQAGGSLRLSCAASGSIFVANAMGWYRQAPGKERELVAAISGSGDRTRYADSVKGRFTISRDNAKNTVYLQMNSLKPEDTAVYYCNARYYASGNLYNYWGQGTQVTVSS”, with “high polyreactivity”. Regarding “QVQLVESGGGLVQAGGSLRLSCAASGSIFVANAMGWYRQAPVKERELVAAISRRGGSTYYADSVKGRFTISRDNAKNTVYLQMNSLKPEDTAVYYCAAEDVYEYDYWGQGTQVTVSS”, the “polyreactivity (PSR sort gate)” value is given as “high polyreactivity”. Turning to “QVQLVESGGGLVQAGGSLRLSCAASGSIFVDTAMGWYRQAPGKERELVAAINWSGGSTYYADSVKGRFTISRDNAQNTVYLQMNSLKPEDTAVYYCYAARPGQTWDEHSWYEYWGQGTQVTVSS”, the “polyreactivity (PSR sort gate)” value was “low polyreactivity”. In the case of “QVQLVESGGGLVQAGGSLRLSCAASGSIFVFNAMGWYRQAPGKERELVAAISSSGGSTYYADSVKGRFTISRDNAKNTVYLQMNSLKPEDTAVYYCNKRLYYQRWPAAAREYWGQGTQVTVSS”, the “polyreactivity (PSR sort gate)” value was “high polyreactivity”. “QVQLVESGGGLVQAGGSLRLSCAASGSIFVFYDMGWYRQAPGKERELVATISSGGGGTYYTDSVKGRFTISRDNAKNTVYLQLNSLKPEDTAVYYCAAEGDKYGKGYGYWGQGTQVTVSS”: the “polyreactivity (PSR sort gate)” value is listed as “low polyreactivity”.

“QVQLVESGGGLVQAGGSLRLSCAASGSIFVFYDMGWYRQAPGKERELVATISSGGGGTYYTDSVKGRFTISRDNAKNTVYLQMNSLKPEDTAVYYCAAEGDKYGKGYGYWGQGTQVTVSS”: the “polyreactivity (PSR sort gate)” value is “low polyreactivity”. For the sequence “QVQLVESGGGLVQAGGSLRLSCAASGSIFVGNAMGWYRQAPGKERELVATITSGCSTYYADSVKGRFTISRDNAMNTVYLQMNSLKPEVTAVYYCAADYDFSKFDYDYWGQGTQVTVSS”, the “polyreactivity (PSR sort gate)” value was “low polyreactivity”. Then “QVQLVESGGGLVQAGGSLRLSCAASGSIFVGNAMGWYRQAPGKERELVSTISRGARTKYADSVKGRFTISRDNAKNTVYLQMNSLKPEDTAVYYCNKVSSYYVFYTPYYSWGQGTQVTVSS”, with “low polyreactivity”; and “QVQLVESGGGLVQAGGSLRLSCAASGSIFVGYAMGWYRQAPGKERELVAAINSSGDRTFYADSVKGRFTISRDNAKNTVYLQMNSLKREDTAVYYCNRVYVRAGVSVAYNYWGQGTQVTVSS”, with “high polyreactivity”.

For “QVQLVESGGGLVQAGGSLRLSCAASGSIFVGYAMGWYRQAPGKERELVAAIRWSGGSTYYADSVKGRFTISRDNAKNTVYLQMNSLKPEDTAVYYCAKYFPAGYYYWGQGTQVTVSS”, the “polyreactivity (PSR sort gate)” value was “low polyreactivity”.

In the case of “QVQLVESGGGLVQAGGSLRLSCAASGSIFVGYVMGWYRQAPGKERELVARIRWGGGRTYYADSVKGRFTISRDNAKNTVYLQMNSLKPEDTAVYYCNARYSYHSVGYWGQGTQVTVSS”, the “polyreactivity (PSR sort gate)” value is “high polyreactivity”. Consider “QVQLVESGGGLVQAGGSLRLSCAASGSIFVINAMGWYRQAPGKERELVAAIDWSGDSTYYADSVKGRFTISRDNAKNTVYLQMNSLKPEDTAVYYCAADLDSRGTYGRYEYWGQGTQVTVSS”, for which the “polyreactivity (PSR sort gate)” value is reported as “low polyreactivity”. Then “QVQLVESGGGLVQAGGSLRLSCAASGSIFVIYAMGWYRQAPGKERELVAAITDSATTNYADSVKGRFTISRDNAKNTVYLQMNSLKPEDTAVYYCAAEYSSYPTAWSTYEFDYWGQGTQVTVSS”, with “low polyreactivity”; and “QVQLVESGGGLVQAGGSLRLSCAASGSIFVIYTMGWYRQAPGKERELVAVITWSTGNTYYADSVKGRFTISRDNAKNTVYLQMNSLKPEDTAVYYCAARTTSRWRSCAYYYWGQGTQVTVSS”, with “high polyreactivity”. Take “QVQLVESGGGLVQAGGSLRLSCAASGSIFVKNAMGWYRQAPGKERELVAAISRSGGSTYYADSVKGRFTISRDNAKYTVYLQMNSLKPEDTAVYYCNAYGSYWDFDEWGQGTQVTVSS”: the “polyreactivity (PSR sort gate)” value is listed as “high polyreactivity”. Turning to “QVQLVESGGGLVQAGGSLRLSCAASGSIFVKNAMGWYRQAPGKERELVATISRRGGSTYYADSVKGRFTISRDNAKNTVYLQMNSLKPEDTAVYYCNRLGTTVSLEYYYWGQGTQVTVSS”, the “polyreactivity (PSR sort gate)” value is recorded as “high polyreactivity”. In the case of “QVQLVESGGGLVQAGGSLRLSCAASGSIFVKYAMGWYRQATGKERELVASITGRGGSTYYADSVKGRFTISRDNAKNTVYFQMNSLIPEDTAVYYCAARVASRHGWHNYWGQGTQVTVSS”, the “polyreactivity (PSR sort gate)” value is “high polyreactivity”.

As for “QVQLVESGGGLVQAGGSLRLSCAASGSIFVLYAMGLYRQAPGTERELVAAITTGGGTNYADSVKGRFTISRDNAKNTVYLQINSLKPEDTAVYYCAADTGWYDDWTHDYWGQGTQVTVSS”, the “polyreactivity (PSR sort gate)” value is reported as “low polyreactivity”. Consider “QVQLVESGGGLVQAGGSLRLSCAASGSIFVLYAMGWSRQAPGKERELVAAITTGGGTNYADSVKGRFTISRDNAKNTVYLQMNSLKPEDTAVYYCAAADSTWFDWGNYWYYYWGQGTQVTVSS”, for which the “polyreactivity (PSR sort gate)” value is “low polyreactivity”. For the sequence “QVQLVESGGGLVQAGGSLRLSCAASGSIFVNNAMGWYRQAHGKERELVAAISGSGSSTHYAHSVKGRFTISRDNAKNTVYLQMNSLKPEDTAVYYCNRGRRDLDFNYWGQGTQVTVSS”, the “polyreactivity (PSR sort gate)” value was “low polyreactivity”.

Take “QVQLVESGGGLVQAGGSLRLSCAASGSIFVNYAMGWSRQAPGKERELVAAISRDGGRTYYADSVKGRFTISRDNAKNTVYLQMNSLKPEDTAVYYCNAVIPSTAYYRYGYWGQGTQVTVSS”: the “polyreactivity (PSR sort gate)” value is “high polyreactivity”.
